Laboratory results reported in the Human Domainome abundance scans (Beltran et al. 2025).
± gives the uncertainty stated by the source.

B1: Bromodomain adjacent to zinc finger domain protein 2B, residues 1927 to 1982; numbered along this chain, Q9UIF8 (parent)
chain: KSIMKVYCQICRKGDNEELLLLCDGCDKGCHTYCHRPKITTIPDGDWFCPACIAKA

Variants of: B1
Assay: abundance fitness (aPCA) (normalised: wild type 0, dead -1); higher = more abundant; growth selection in yeast, the domain comes from the species named
Details: Homo sapiens

Abundance fitness of substitutions, site by site:
C11: N -1.04 ± 0.2; P -0.767 ± 0.11; S -0.997 ± 0.097; M -1.08 ± 0.17; T -1.14 ± 0.17; L -1.01 ± 0.1; V -1.16 ± 0.099; Q -1.19 ± 0.18; W -1.21 ± 0.14; R -0.933 ± 0.081
D15: Y -0.452 ± 0.17; P -0.293 ± 0.12; F -0.118 ± 0.36; Q -0.238 ± 0.16; M -0.406 ± 0.21; G -0.099 ± 0.068; E 0.113 ± 0.11; A -0.234 ± 0.089; W -0.279 ± 0.12; R -0.263 ± 0.069; K -0.038 ± 0.16; N -0.008 ± 0.17; C -0.122 ± 0.12; V -0.06 ± 0.094; H -0.429 ± 0.2; T -0.22 ± 0.14; L -0.362 ± 0.12; I -0.221 ± 0.19
N16: Y -0.032 ± 0.15; A -0.125 ± 0.096; S -0.008 ± 0.085; D 0.046 ± 0.21; Q 0.01 ± 0.16; F -0.329 ± 0.15; M -0.165 ± 0.16; T -0.017 ± 0.1; C -0.081 ± 0.1; V -0.181 ± 0.11; G -0.014 ± 0.082; H 0 ± 0.14; E 0.018 ± 0.14; I -0.098 ± 0.13; W -0.183 ± 0.11; L -0.116 ± 0.084
C26: T -0.678 ± 0.11; P -0.75 ± 0.14; H -1.04 ± 0.27; I -0.673 ± 0.4; S -0.616 ± 0.089; L -0.819 ± 0.088; V -0.612 ± 0.1; W -0.931 ± 0.12; E -0.676 ± 0.12; G -0.572 ± 0.076; R -0.674 ± 0.069; D -0.676 ± 0.19; N -0.753 ± 0.2; K -0.744 ± 0.14; Q -0.711 ± 0.15; Y -0.706 ± 0.13; A -0.598 ± 0.11; F -0.969 ± 0.3
E17: W -0.092 ± 0.093; F -0.363 ± 0.35; D -0.038 ± 0.2; R 0.072 ± 0.078; G 0.022 ± 0.076; P 0.085 ± 0.2; Q 0.103 ± 0.16; C 0.005 ± 0.14; I -0.127 ± 0.24; K 0.172 ± 0.18; M -0.052 ± 0.14; L -0.008 ± 0.098; T -0.069 ± 0.19; H -0.34 ± 0.24; Y -0.409 ± 0.26; N -0.139 ± 0.21; S -0.015 ± 0.12
L20: G -0.509 ± 0.11; R -0.318 ± 0.093; P -0.421 ± 0.094; F 0.058 ± 0.13; A -0.227 ± 0.076; K -0.138 ± 0.14; Q -0.34 ± 0.14; C -0.011 ± 0.14; E -0.34 ± 0.11; M -0.009 ± 0.13; W -0.354 ± 0.14; S -0.308 ± 0.092; T -0.094 ± 0.096; V -0.069 ± 0.079; N -0.337 ± 0.12; D -0.566 ± 0.14
K28: N -0.047 ± 0.14; C -0.158 ± 0.13; M -0.002 ± 0.12; L -0.025 ± 0.097; P -0.755 ± 0.15; E 0.034 ± 0.11; S -0.089 ± 0.087; G -0.02 ± 0.079; F 0.094 ± 0.14; T -0.026 ± 0.11; A -0.085 ± 0.079; D -0.055 ± 0.13; H 0.04 ± 0.2; Y -0.035 ± 0.16; Q 0.094 ± 0.19; W 0.008 ± 0.1; I -0.329 ± 0.15
C30: G -0.009 ± 0.063; P -0.459 ± 0.12; Q 0.024 ± 0.11; S -0.011 ± 0.077; H -0.016 ± 0.15; N -0.208 ± 0.13; I 0.15 ± 0.14; E 0.034 ± 0.083; F -0.002 ± 0.11; A -0.101 ± 0.08; W 0.031 ± 0.075; K -0.076 ± 0.099; T 0.039 ± 0.096; L -0.064 ± 0.068; R -0.023 ± 0.064; D -0.238 ± 0.11; Y 0.004 ± 0.11; V -0.071 ± 0.074; M 0.069 ± 0.09
G14: S 0.032 ± 0.092; A 0.011 ± 0.082; R 0.018 ± 0.068; K -0.063 ± 0.14; D -0.056 ± 0.15; H -0.054 ± 0.18; L -0.056 ± 0.075; P -0.026 ± 0.11; E -0.07 ± 0.11; M 0.002 ± 0.15; I -0.23 ± 0.31; T 0.046 ± 0.12; V 0.035 ± 0.08; Q -0.003 ± 0.13; C -0.171 ± 0.13; Y 0.079 ± 0.18; F -0.127 ± 0.19
D24: S 0.053 ± 0.089; L -0.034 ± 0.087; G 0.155 ± 0.095; T 0.06 ± 0.12; H -0.063 ± 0.17; C 0.073 ± 0.15; F -0.273 ± 0.18; R -0.061 ± 0.084; Q 0.08 ± 0.14; N 0.113 ± 0.12; E 0.219 ± 0.14; K -0.005 ± 0.13; P -0.05 ± 0.11; Y -0.669 ± 0.14; A 0.048 ± 0.11; M 0.026 ± 0.13
K13: I -0.136 ± 0.2; W -0.25 ± 0.091; P -0.512 ± 0.1; M -0.002 ± 0.13; S -0.11 ± 0.089; T -0.164 ± 0.092; Q -0.111 ± 0.099; N -0.102 ± 0.13; R -0.177 ± 0.069; Y -0.271 ± 0.14; V -0.138 ± 0.081; G -0.047 ± 0.078; A -0.032 ± 0.074; E -0.045 ± 0.12; F -0.24 ± 0.16; H -0.076 ± 0.12; D -0.047 ± 0.12
E18: C -0.235 ± 0.13; Y -0.188 ± 0.18; S 0.01 ± 0.1; W -0.266 ± 0.12; I -0.376 ± 0.18; K 0.051 ± 0.16; G -0.046 ± 0.092; P -0.183 ± 0.12; R -0.055 ± 0.074; F -0.124 ± 0.12; M -0.039 ± 0.13; H 0.042 ± 0.16; A -0.011 ± 0.096; V -0.205 ± 0.086; T -0.011 ± 0.1; Q -0.067 ± 0.1
R12: I 0.001 ± 0.15; Y -0.183 ± 0.15; T -0.028 ± 0.1; H -0.187 ± 0.14; Q -0.041 ± 0.14; G -0.055 ± 0.063; E 0.008 ± 0.097; V -0.079 ± 0.065; K 0.043 ± 0.13; S 0.042 ± 0.09; P -0.89 ± 0.17; M -0.05 ± 0.11; F -0.23 ± 0.16; C -0.163 ± 0.12; D -0.021 ± 0.1; A 0.008 ± 0.073; W -0.256 ± 0.11
H31: D -0.386 ± 0.12; K -0.5 ± 0.13; T -0.446 ± 0.1; A -0.683 ± 0.083; G -0.471 ± 0.063; I -0.817 ± 0.16; W -0.856 ± 0.1; M -0.71 ± 0.11; S -0.639 ± 0.088; Y -0.573 ± 0.1; N -0.553 ± 0.14; P -0.556 ± 0.1; R -0.601 ± 0.069; Q -0.622 ± 0.11; V -0.624 ± 0.073; L -0.926 ± 0.1; E -0.753 ± 0.12; F -0.954 ± 0.2; C -0.483 ± 0.13
G29: N -0.013 ± 0.16; D -0.378 ± 0.12; R -0.075 ± 0.064; I 0.084 ± 0.22; F -0.035 ± 0.18; L -0.149 ± 0.074; V 0.002 ± 0.079; C 0.004 ± 0.11; T -0.088 ± 0.11; A -0.061 ± 0.086; P -0.321 ± 0.11; Y -0.093 ± 0.15; E -0.078 ± 0.1; H -0.167 ± 0.17; W -0.147 ± 0.079; S -0.019 ± 0.074; Q -0.053 ± 0.11; M -0.279 ± 0.12
L21: S -0.2 ± 0.08; F -0.3 ± 0.13; K -0.005 ± 0.12; Y -0.374 ± 0.11; H -0.37 ± 0.15; N -0.206 ± 0.12; W -0.248 ± 0.1; D -0.346 ± 0.12; P -0.524 ± 0.12; A -0.117 ± 0.1; I -0.072 ± 0.15; T -0.042 ± 0.097; E -0.336 ± 0.14; M -0.076 ± 0.13; G -0.224 ± 0.083
L19: P -0.08 ± 0.13; F -0.294 ± 0.17; W -0.03 ± 0.11; E -0.012 ± 0.093; N 0.027 ± 0.14; R -0.078 ± 0.097; Y -0.067 ± 0.18; V -0.011 ± 0.074; Q 0.137 ± 0.17; D -0.138 ± 0.13; T -0.1 ± 0.11; S -0.03 ± 0.094; M 0.061 ± 0.13; G -0.064 ± 0.08; I -0.125 ± 0.18; K -0.016 ± 0.13; C -0.071 ± 0.17
G25: N -0.16 ± 0.13; D -0.192 ± 0.093; T -0.09 ± 0.1; Q 0.003 ± 0.13; A -0.171 ± 0.084; I -0.45 ± 0.26; P -0.551 ± 0.1; W -0.251 ± 0.096; E -0.014 ± 0.1; H -0.124 ± 0.17; Y -0.221 ± 0.31; K -0.031 ± 0.13; F -0.33 ± 0.19; R -0.096 ± 0.072; S -0.149 ± 0.081; L -0.266 ± 0.09
C23: Y -0.42 ± 0.18
D27: R -0.127 ± 0.074; Y -0.085 ± 0.13; M -0.128 ± 0.19; K -0.001 ± 0.17; N -0.096 ± 0.11; T -0.08 ± 0.11; A -0.112 ± 0.083; G 0.023 ± 0.065; W -0.069 ± 0.088; S -0.099 ± 0.09; E 0.109 ± 0.12; V -0.222 ± 0.084; C -0.187 ± 0.11; P -0.173 ± 0.12
L22: I -0.054 ± 0.2; V -0.034 ± 0.085; N -0.051 ± 0.15; E 0.029 ± 0.092; Y -0.174 ± 0.17; P -0.126 ± 0.14; H -0.039 ± 0.17; G -0.006 ± 0.072; A 0.032 ± 0.083; T -0.024 ± 0.12; M -0.067 ± 0.13; C 0.008 ± 0.14; S 0.01 ± 0.085; K 0.144 ± 0.12
T32: C -0.333 ± 0.11; H -0.111 ± 0.16; E -0.27 ± 0.097; G -0.118 ± 0.064; A -0.065 ± 0.075; F -0.235 ± 0.14
